From paper PMC4599368 (Cell reports, 2015)

B1: EBOV NP residues 25–457 ([change]) (domain or fragment)
chain: LTAGLSVQQGIVRQRVIPVYQVNNLEEICQLIIQAFEAGVDFQESADSFLLMLCLHHAYQGDYKLFLESGAVKYLEGHGFRFEVKKRDGVKRLEELLPAVSSGKNIKRTLAAMPEEETTEANAGQFLSFASLFLPKLVVGEKACLEKVQRQIQVHAEQGLIQYPTAWQSVGHMMVIFRLMRTNFLIKFLLIHQGMHMVAGHDANDAVISNSVAQARFSGLLIVKTVLDHILQKTERGVRLHPLARTAKVKNEVNSFKAALSSLAKHGEYAPFARLLNLSGVNNLEHGLFPQLSAIALGVATAHGSTLAGVNVGEQYQQLREAATEAEKQLQQYAESRELDHLGLDDQEKKILMNFHQKKNEISFQQTNAMVTLRKERLAKLTEAITAASLPKTSGHYDDDDDIPFPGPINDDDNPGHQDDDPTDSQDTTIPDV

Legend:
[1] = target: B1; test: ITC
SEC = target: the molecule itself; test: SEC

| Binder | fold reduction in binding affinity relative to NPBP [1] [fold] | also measured |
| --- | --- | --- |
| GWISEQLMTGRIPVSDIFCDIE [EBOV VP35 peptide 27–48] | 6.5 | – |
| B1 | – | binding result (SEC): binds |
| MTTRTKGRGHTAATTQNDRMPGPELSGWISEQLMTGRIPVSDIFC [EBOV VP35 peptide 1–45] | 1.5 | – |
| EBOV VP35 1–168 (domain or fragment) MTTRTKGRGHTAATTQNDRMPGPELSGWISEQLMTGRIPVSDIFCDIENNPGLCYASQMQQTKPNPKTRNSQTQTDPICNHSFEEVVQTLASLATVVQQQTIASESLEQRITSLENGLKPVYDMAKTISSLNRVCAEMVAKYDLLVMTTGRATATAAATEAYWAEHGQ | – | binding result [1]: binds |
